Assay results published in patent publication US20240218342A1, “SITE-SPECIFIC GLYCAN REMODELING OF LYSOSOMAL ENZYMES AND APPLICATIONS THEREOF” (priority 2021, published 2024).

Biological target: GlcNAc-peptide derived from rhGAA containing N470 glycosite (human)
Sequence (peptide, as listed by the source): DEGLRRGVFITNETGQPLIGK

transglycosylation of oxazoline 1 to the GlcNAc-peptide, yield of glycopeptide 66: 53%
Substance: Endo A-N171A (enzyme)
